Measurements published in paper PMC6150735, “Molecular Docking-Based Design and Development of a Highly Selective Probe Substrate for UDP-glucuronosyltransferase 1A10” (Molecular Pharmaceutics, 2018).

Assays:
[1] = tested on: human UGTs; experiment: Recombinant human UGT screen: glucuronidation rates across human UGTs; assay type: biochemical; conditions: 10 μM aglycone, control substrates
Description: (§1) Recombinant human UGTs 1A1, 1A3, 1A6, 1A7, 1A8, 1A9, 1A10, 2A1, 2A2, 2A3, 2B4, 2B10, 2B7, and 2B17 were produced, as His-tagged proteins, in baculovirus-infected insect cells as previously described.[37]−[39] The relative expression level of each of these recombinant UGTs was evaluated by immunodetection, using monoclonal antibody against the His-tag, as described elsewhere.[40] A numeric value of 1.0 was given to the expression level of UGT1A8 and the relative expression level of each of the other UGTs was related to this value. Normalized activities were obtained by dividing the glucuronidation rate values by the relative expression level of the tested UGT. In addition, UGTs 1A4, 2B10, and 2B15 were purchased from Corning Life Sciences (New York) and are marked, in Figure 5, with a “C” to indicate that they are commercial enzymes. The expression levels of the UGTs in the commercial samples could not be determined, so their protein concentration was used to calculate the reaction rate.
(§2) The incubation mixtures for glucuronidation assays contained 100 mM Tris-HCl buffer pH 7.4, 2.5 mM MgCl2, 0.5 mM UDPGA, recombinant UGT, or microsomes as the enzyme source and 0–15 μM of the test aglycone substrate. When the incubation mixtures contained microsomes, alamethicin was used at a final concentration of 12.5 μg/mL, but it was not included in the recombinant enzyme assays.[43] In the first experiments three negative control samples were tested, namely (i) without the substrate 7-hydroxycoumarin derivative, (ii) without the cofactor UDPGA, or (iii) without the enzyme source. In subsequent experiments, the control samples lacked the enzyme source since it gave the highest fluorescence background. Preliminary experiments were done under different conditions than most of the later assays, namely in 2.5 mL of 100 mM phosphate buffer pH 7.4, containing 500 μg pig liver microsomes, 1.0 μM compound 6 and 0.5 mM UDPGA, at room temperature. Fluorescence spectra (excitation 200–420 nm; emission 400–600 nm) or fluorescence decrease at 390 nm excitation and 460 nm emission, were measured in these preliminary experiments, using a Shimadzu RF-5000 spectrophotofluorometer.
(§3) Most of the glucuronidation assays were carried out in 96 multiwell plate format, and incubations were carried out in 100 μL and at 37 °C, in the presence of Tris–HCl buffer pH 7.4, UDPGA, and the tested 7-hydroxycoumarin derivative, at the indicated concentrations. Fluorescence decline in the multiwell plate experiments was monitored every other minute, for 40 min, using an excitation filter at 405 nm and detection at 460 nm, in a Victor2 1420 Multilabel counter (PerkinElmer, Life Sciences, Turku, Finland). The fluorescence values were transformed into molarity using the aglycone substrates for making the respective standard curves. Slopes of the substrate concentration decrease per minute were calculated using linear regression analysis, in which the linear part of the kinetic assay indicated the glucuronidation rate. Enzyme catalyzed glucuronidation rate was calculated by subtracting the blank value from the full reaction value. The intra-assay variability of the kinetic assays was 6% when compound 6 was used as the aglycone substrate. Kinetic analyses were also performed in the same 96 multiwell plates format, with excitation filter at 405 nm and detection at 460 nm, using 6–8 different substrate concentrations per substrate and two different protein concentrations for both the wild-type and mutant UGT1A10. The higher concentrations, 13.5 mg/L for UGT1A10 and 12.0 mg/L for the UGT1A10 mutant, were used when the substrates were HFC, compounds 4 and 6, whereas the lower protein concentrations, 6.75 and 6.0 mg/L for UGT1A10 and the mutant, respectively, were used when the substrates were compounds 1, 2, 3, and 5.

[2] = tested on: human intestinal microsomes (HIM); experiment: Glucuronidation by human intestinal microsomes (HIM); assay type: in vitro ADME; conditions: 10 μM aglycone
Description: A commercial HLM pool (cat no:452210, BD Gentest, Bedford, MA) and human intestine microsomes (HIM) pool (lot. no 1110189, XenoTech, Kansas City, KS) were purchased. Pig liver samples were prepared from untreated female pigs that were used for practicing surgical procedures at the University of Kuopio (currently: University of Eastern Finland, Kuopio campus). Other animal liver microsomes were prepared as described previously.[41] The Ethics Committee for Animal Experiments, University of Kuopio, approved these experiments.
as §2, §3

[3] = substrate: CN(C)c1ccc(-c2cc3ccc(O)cc3oc2=O)cc1; experiment: Glucuronidation kinetics by recombinant wild-type UGT1A10 (fluorescence decrease, 96-well plate); assay type: biochemical, human; conditions: other: UGT1A10 wild-type, 7-hydroxyl glucuronidation, Michaelis–Menten, one experiment; pH 7.4; 37.0 °C
Description: as §1, §2, §3

[4] = substrate: COc1ccc(-c2cc3ccc(O)cc3oc2=O)cc1; experiment: as above; assay type: biochemical, human; conditions: other: UGT1A10 wild-type, 7-hydroxyl glucuronidation, Michaelis–Menten, one experiment; pH 7.4; 37.0 °C
Description: as §1, §2, §3

[5] = substrate: Cc1ccc(-c2cc3ccc(O)cc3oc2=O)cc1; experiment: as above; assay type: biochemical, human; conditions: other: UGT1A10 wild-type, 7-hydroxyl glucuronidation, Michaelis–Menten, one experiment; pH 7.4; 37.0 °C
Description: as §1, §2, §3

[6] = substrate: O=c1cc(C(F)(F)F)c2ccc(O)cc2o1; experiment: as above; assay type: biochemical, human; conditions: other: UGT1A10 wild-type, 7-hydroxyl glucuronidation, Michaelis–Menten, one experiment; pH 7.4; 37.0 °C
Description: as §1, §2, §3

[7] = substrate: O=c1oc2cc(O)ccc2cc1-c1ccc(F)cc1; experiment: as above; assay type: biochemical, human; conditions: other: UGT1A10 wild-type, 7-hydroxyl glucuronidation, Michaelis–Menten, one experiment; pH 7.4; 37.0 °C
Description: as §1, §2, §3

[8] = substrate: O=c1oc2cc(O)ccc2cc1-c1ccc(O)cc1; experiment: as above; assay type: biochemical, human; conditions: other: UGT1A10 wild-type, 7-hydroxyl glucuronidation, Michaelis–Menten, one experiment; pH 7.4; 37.0 °C
Description: as §1, §2, §3

[9] = substrate: O=c1oc2cc(O)ccc2cc1-n1cncn1; experiment: as above; assay type: biochemical, human; conditions: other: UGT1A10 wild-type, 7-hydroxyl glucuronidation, Michaelis–Menten, one experiment; pH 7.4; 37.0 °C
Description: as §1, §2, §3

[10] = substrate: CN(C)c1ccc(-c2cc3ccc(O)cc3oc2=O)cc1; experiment: Glucuronidation kinetics by UGT1A10 mutant 1A10-H210M (fluorescence decrease, 96-well plate); assay type: biochemical, human; conditions: other: UGT1A10mutant (H210M), 7-hydroxyl glucuronidation, one experiment; pH 7.4; 37.0 °C
Description: (§4) The UGT1A10 mutant 1A10-H210 M was prepared according to the QuikChange methodology, using the cloned UGT1A10 in pFastBac[42] as a template and the following two oligonucleotides:
(§5) The entire coding sequence of UGT1A10 in the mutant clone was sequenced, and subsequently, recombinant baculovirus was prepared and used to express the mutant enzyme in baculovirus-infected SF9 insect cells.
as §2, §3

[11] = substrate: COc1ccc(-c2cc3ccc(O)cc3oc2=O)cc1; experiment: as above; assay type: biochemical, human; conditions: other: UGT1A10mutant (H210M), 7-hydroxyl glucuronidation, one experiment; pH 7.4; 37.0 °C
Description: as §4, §5, §2, §3

[12] = substrate: Cc1ccc(-c2cc3ccc(O)cc3oc2=O)cc1; experiment: as above; assay type: biochemical, human; conditions: other: UGT1A10mutant (H210M), 7-hydroxyl glucuronidation, one experiment; pH 7.4; 37.0 °C
Description: as §4, §5, §2, §3

[13] = substrate: O=c1cc(C(F)(F)F)c2ccc(O)cc2o1; experiment: as above; assay type: biochemical, human; conditions: other: UGT1A10mutant (H210M), 7-hydroxyl glucuronidation, one experiment; pH 7.4; 37.0 °C
Description: as §4, §5, §2, §3

[14] = substrate: O=c1oc2cc(O)ccc2cc1-c1ccc(F)cc1; experiment: as above; assay type: biochemical, human; conditions: other: UGT1A10mutant (H210M), 7-hydroxyl glucuronidation, one experiment; pH 7.4; 37.0 °C
Description: as §4, §5, §2, §3

[15] = substrate: O=c1oc2cc(O)ccc2cc1-c1ccc(O)cc1; experiment: as above; assay type: biochemical, human; conditions: other: UGT1A10mutant (H210M), 7-hydroxyl glucuronidation, one experiment; pH 7.4; 37.0 °C
Description: as §4, §5, §2, §3

[16] = substrate: O=c1oc2cc(O)ccc2cc1-n1cncn1; experiment: as above; assay type: biochemical, human; conditions: other: UGT1A10mutant (H210M), 7-hydroxyl glucuronidation, one experiment; pH 7.4; 37.0 °C
Description: as §4, §5, §2, §3

O=c1ccc2ccc(O)cc2o1 [7-hydroxycoumarin, reference compound]
UGT(s) that primarily glucuronidate the substrate [1]: UGT1A6 | Glucuronidation rate, HLM compared with HIM (in words) [2]: much higher rates by HLM than by HIM

B1: UGT1A10 (Homo sapiens) (protein)
chain: GKLLVVPMDGSHWFTMQSVVEKLILRGHEVVVVMPEVSWQLERSLNCTVKTYSTSYTLEDQNREFMVFAHAQWKAQAQSIFSLLMSSSSGFLDLFFSHCRSLFNDRKLVEYLKESSFDAVFLDPFDTCGLIVAKYFSLPSVVFTRGIFCHHLEEGAQCPAPLSYVPNDLLGFSDAMTFKERVWNHIVHLEDHLFCQYLFRNALEIASEILQTPVTAYDLYSHTSIWLLRTDFVLDYPKPVMPNMIFIGGINCHQGKPLPMEFEAYINASGEHGIVVFSLGSMVSEIPEKKAMAIADALGKIPQTVLWRYTGTRPSNLANNTILVKWLPQNDLLGHPMTRAFITHAGSHGVYESICNGVPMVMMPLFGDQMDNAKRMETKGAGVTLNVLEMTSEDLENALKAVINDKSYKENIMRLSSLHKDRPVEPLDLAVFWVEFVMRHKGAPHLRPAAHDLTWYQYHSLDVIGFLLAVVLTVAFITFKCCAYGYRKCLGKKGRVKKAHKSKTH
notes: His-tag; made in house; host or cells: baculovirus-infected insect cells
Km [3]: 2.8 (0–6.5) μM | Vmax [3]: 0.0153 µmol/min/mg | Vmax/Km [3]: 5500 µL/min/mg | Km [4]: 8.3 (0–31.4) μM | Vmax [4]: 0.0223 µmol/min/mg | Vmax/Km [4]: 2700 µL/min/mg | Km [5]: 2.8 (0.7–4.9) μM | Vmax [5]: 0.0162 µmol/min/mg | Vmax/Km [5]: 5800 µL/min/mg | Km [6]: 14 (10.7–17.3) μM | Vmax [6]: 0.0151 µmol/min/mg | Vmax/Km [6]: 1100 µL/min/mg | Km [7]: 10.7 (1.7–19.6) μM | Vmax [7]: 0.031 µmol/min/mg | Vmax/Km [7]: 2900 µL/min/mg | Km [8]: 2.2 (1–3.4) μM | Vmax [8]: 0.0059 µmol/min/mg | Vmax/Km [8]: 2700 µL/min/mg | Km [9]: 7.0 (3.1–11) μM | Vmax [9]: 0.0053 µmol/min/mg | Vmax/Km [9]: 760 µL/min/mg

B2: UGT1A10 mutant 1A10-H210M (Homo sapiens; H210M) (protein)
chain: GKLLVVPMDGSHWFTMQSVVEKLILRGHEVVVVMPEVSWQLERSLNCTVKTYSTSYTLEDQNREFMVFAHAQWKAQAQSIFSLLMSSSSGFLDLFFSHCRSLFNDRKLVEYLKESSFDAVFLDPFDTCGLIVAKYFSLPSVVFTRGIFCHHLEEGAQCPAPLSYVPNDLLGFSDAMTFKERVWNMIVHLEDHLFCQYLFRNALEIASEILQTPVTAYDLYSHTSIWLLRTDFVLDYPKPVMPNMIFIGGINCHQGKPLPMEFEAYINASGEHGIVVFSLGSMVSEIPEKKAMAIADALGKIPQTVLWRYTGTRPSNLANNTILVKWLPQNDLLGHPMTRAFITHAGSHGVYESICNGVPMVMMPLFGDQMDNAKRMETKGAGVTLNVLEMTSEDLENALKAVINDKSYKENIMRLSSLHKDRPVEPLDLAVFWVEFVMRHKGAPHLRPAAHDLTWYQYHSLDVIGFLLAVVLTVAFITFKCCAYGYRKCLGKKGRVKKAHKSKTH
notes: His-tag; made in house; host or cells: baculovirus-infected SF9 insect cells
Km [10]: 4.7 (1.5–7.9) μM | Vmax [10]: 0.0065 µmol/min/mg | Vmax/Km [10]: 1400 µL/min/mg | Km [11]: 3.8 (0.97–6.7) μM | Vmax [11]: 0.0095 µmol/min/mg | Vmax/Km [11]: 2500 µL/min/mg | Km [12]: 4.6 (1.5–7.8) μM | Vmax [12]: 0.0059 µmol/min/mg | Vmax/Km [12]: 1300 µL/min/mg | Km [13]: 32.9 (0–102) μM | Vmax [13]: 0.0117 µmol/min/mg | Vmax/Km [13]: 360 µL/min/mg | Km [14]: 3.5 (0–9.3) μM | Vmax [14]: 0.0087 µmol/min/mg | Vmax/Km [14]: 2500 µL/min/mg | Km [15]: 7.8 (5.5–10.2) μM | Vmax [15]: 0.0063 µmol/min/mg | Vmax/Km [15]: 810 µL/min/mg | Km [16]: 26.8 (0–80) μM | Vmax [16]: 0.0063 µmol/min/mg | Vmax/Km [16]: 240 µL/min/mg
